Data on 94 variants can be found in the supplement of paper PMC10567573.

The chains are these.
B1: C1orf137 (parent)
chain: LPQETNLTLKVCKPQAPQKLDPTL
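Further: lentivirally expressed fusions sorted by FACS into six bins by GFP to DsRed ratio, PSI derived from sequencing read proportions per bin multiplied by bin number.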

Variants of B1 are the subject of this data set. In words: protein stability index of a GFP-peptide fusion (GPS, HEK-293T) (PSI 1-6); higher = more stable. The conditions noted are these: c terminus: a fixed tail appended.
For the variant LPQETNLTLKVCKPQAPQKLDPLL [T23L], the protein stability index was 3.06.

In the case of LPQETNLTLKVCKPQAPQKLDPGL [T23G], the protein stability index came out at 3.8.

As to LPQETNLTLKVCKPQAPQKLDPKL [T23K], the protein stability index worked out at 4.16.

As to LPQETNLTLKVCKPQAPQKLDPHL [T23H], the protein stability index worked out at 3.44.

Take LPQETNLTLKVCKPQAPQKLDPIL [T23I]: the protein stability index is 3.37.

Turning to LPQETNLTLKVCKPQAPQKLDPQL [T23Q], the protein stability index was 4.21.

On to LPQETNLTLKVCKPQAPQKLDPYL [T23Y], for which the protein stability index is 2.94.

As to LPQETNLTLKVCKPQAPQKLDPDL [T23D], the protein stability index came to 4.8.

For the variant LPQETNLTLKVCKPQAPQKLDPFL [T23F], the protein stability index was 2.98.

Take LPQETNLTLKVCKPQAPQKLDPNL [T23N]: the protein stability index was determined as 4.2.

For the variant LPQETNLTLKVCKPQAPQKLDPCL [T23C], the protein stability index came to 3.89.

In the case of LPQETNLTLKVCKPQAPQKLDPAL [T23A], the protein stability index was 3.47.

On to LPQETNLTLKVCKPQAPQKLDPWL [T23W], for which the protein stability index came to 2.48.

For LPQETNLTLKVCKPQAPQKLDPSL [T23S], the protein stability index turned out to be 3.85.

As for LPQETNLTLKVCKPQAPQKLDPEL [T23E], the protein stability index is 4.91.

As for LPQETNLTLKVCKPQAPQKLDPVL [T23V], the protein stability index stood at 3.4.

For LPQETNLTLKVCKPQAPQKLDPRL [T23R], the protein stability index came to 3.48.

Regarding LPQETNLTLKVCKPQAPQKLDPML [T23M], the protein stability index is 3.32.

With LPQETNLTLKVCKPQAPQVLDPTL [K19V], the protein stability index was 4.06.

Turning to LPQETNLTLKVCKPQAPQYLDPTL [K19Y], the protein stability index came to 3.36.

As to LPQETNLTLKVCKPQAPQMLDPTL [K19M], the protein stability index worked out at 3.53.

Consider LPQETNLTLKVCKPQAPQLLDPTL [K19L], for which the protein stability index came to 3.01.

As for LPQETNLTLKVCKPQAPQWLDPTL [K19W], the protein stability index was 2.36.

In the case of LPQETNLTLKVCKPQAPQPLDPTL [K19P], the protein stability index was 3.96.

On to LPQETNLTLKVCKPQAPQQLDPTL [K19Q], for which the protein stability index was determined as 3.85.

As for LPQETNLTLKVCKPQAPQGLDPTL [K19G], the protein stability index was 3.5.

Regarding LPQETNLTLKVCKPQAPQCLDPTL [K19C], the protein stability index was 2.92.

For the variant LPQETNLTLKVCKPQAPQTLDPTL [K19T], the protein stability index worked out at 4.06.

Regarding LPQETNLTLKVCKPQAPQALDPTL [K19A], the protein stability index came to 3.8.

For the variant LPQETNLTLKVCKPQAPQILDPTL [K19I], the protein stability index was 2.54.

For LPQETNLTLKVCKPQAPQSLDPTL [K19S], the protein stability index stood at 3.72.

For the variant LPQETNLTLKVCKPQAPQNLDPTL [K19N], the protein stability index was 3.56.

Turning to LPQETNLTLKVCKPQAPQRLDPTL [K19R], the protein stability index was 3.55.

Take LPQETNLTLKVCKPQAPQELDPTL [K19E]: the protein stability index amounted to 3.77.

LPQETNLTLKVCKPQAPQFLDPTL [K19F]: the protein stability index came to 2.96.

Consider LPQETNLTLKVCKPQAPQHLDPTL [K19H], for which the protein stability index was found to be 3.78.

In the case of LPQETNLTLKVCKPQAPQDLDPTL [K19D], the protein stability index is 3.92.

Turning to LPQETNLTLKVCKPYAPQKLDPTL [Q15Y], the protein stability index amounted to 2.64.

On to LPQETNLTLKVCKPAAPQKLDPTL [Q15A], for which the protein stability index is 3.91.

LPQETNLTLKVCKPTAPQKLDPTL [Q15T]: the protein stability index amounted to 4.08.

For the variant LPQETNLTLKVCKPWAPQKLDPTL [Q15W], the protein stability index worked out at 3.5.

With LPQETNLTLKVCKPVAPQKLDPTL [Q15V], the protein stability index came out at 3.65.

With LPQETNLTLKVCKPHAPQKLDPTL [Q15H], the protein stability index came to 3.65.

Consider LPQETNLTLKVCKPSAPQKLDPTL [Q15S], for which the protein stability index was determined as 3.86.

In the case of LPQETNLTLKVCKPCAPQKLDPTL [Q15C], the protein stability index worked out at 3.58.

With LPQETNLTLKVCKPIAPQKLDPTL [Q15I], the protein stability index came to 3.03.

As to LPQETNLTLKVCKPLAPQKLDPTL [Q15L], the protein stability index amounted to 2.96.

LPQETNLTLKVCKPMAPQKLDPTL [Q15M]: the protein stability index worked out at 3.28.

Consider LPQETNLTLKVCKPEAPQKLDPTL [Q15E], for which the protein stability index amounted to 4.41.

As for LPQETNLTLKVCKPFAPQKLDPTL [Q15F], the protein stability index turned out to be 2.69.

As for LPQETNLTLKVCKPRAPQKLDPTL [Q15R], the protein stability index was found to be 3.69.

Turning to LPQETNLTLKVCKPNAPQKLDPTL [Q15N], the protein stability index was 4.04.

For LPQETNLTLKVCKPDAPQKLDPTL [Q15D], the protein stability index was determined as 4.49.

As to LPQETNLTLKVCKPGAPQKLDPTL [Q15G], the protein stability index amounted to 3.93.

LPQETNLTLKVCKPKAPQKLDPTL [Q15K]: the protein stability index was determined as 3.69.

Regarding LPQETNLTLKVCKPQAVQKLDPTL [P17V], the protein stability index came out at 3.95.

Regarding LPQETNLTLKVCKPQACQKLDPTL [P17C], the protein stability index was found to be 3.51.

For LPQETNLTLKVCKPQAKQKLDPTL [P17K], the protein stability index worked out at 4.13.

Take LPQETNLTLKVCKPQANQKLDPTL [P17N]: the protein stability index was determined as 3.21.

For the variant LPQETNLTLKVCKPQATQKLDPTL [P17T], the protein stability index was found to be 3.81.

On to LPQETNLTLKVCKPQARQKLDPTL [P17R], for which the protein stability index was determined as 3.17.

As for LPQETNLTLKVCKPQAWQKLDPTL [P17W], the protein stability index is 2.3.

For LPQETNLTLKVCKPQAFQKLDPTL [P17F], the protein stability index is 3.03.

As to LPQETNLTLKVCKPQAAQKLDPTL [P17A], the protein stability index is 3.97.

Take LPQETNLTLKVCKPQAQQKLDPTL [P17Q]: the protein stability index came to 4.36.

Turning to LPQETNLTLKVCKPQAEQKLDPTL [P17E], the protein stability index stood at 4.27.

On to LPQETNLTLKVCKPQAGQKLDPTL [P17G], for which the protein stability index was determined as 3.74.

Turning to LPQETNLTLKVCKPQAMQKLDPTL [P17M], the protein stability index came to 3.68.

LPQETNLTLKVCKPQASQKLDPTL [P17S]: the protein stability index amounted to 3.62.

For the variant LPQETNLTLKVCKPQADQKLDPTL [P17D], the protein stability index was 4.52.

On to LPQETNLTLKVCKPQAYQKLDPTL [P17Y], for which the protein stability index stood at 3.57.

Take LPQETNLTLKVCKPQAIQKLDPTL [P17I]: the protein stability index came out at 4.

LPQETNLTLKVCKPQAHQKLDPTL [P17H]: the protein stability index amounted to 3.58.

LPQETNLTLKVCKPQALQKLDPTL [P17L]: the protein stability index is 3.07.

In the case of LPQETNLTLKVCKPQAPQKLMPTL [D21M], the protein stability index worked out at 2.86.

Turning to LPQETNLTLKVCKPQAPQKLIPTL [D21I], the protein stability index amounted to 2.74.

LPQETNLTLKVCKPQAPQKLWPTL [D21W]: the protein stability index is 2.36.

In the case of LPQETNLTLKVCKPQAPQKLCPTL [D21C], the protein stability index was found to be 3.05.

Regarding LPQETNLTLKVCKPQAPQKLNPTL [D21N], the protein stability index is 3.17.

Regarding LPQETNLTLKVCKPQAPQKLSPTL [D21S], the protein stability index worked out at 3.85.

As for LPQETNLTLKVCKPQAPQKLRPTL [D21R], the protein stability index is 3.19.

With LPQETNLTLKVCKPQAPQKLFPTL [D21F], the protein stability index was found to be 2.66.

For LPQETNLTLKVCKPQAPQKLYPTL [D21Y], the protein stability index was found to be 2.73.

For LPQETNLTLKVCKPQAPQKLAPTL [D21A], the protein stability index was determined as 2.65.

Take LPQETNLTLKVCKPQAPQKLQPTL [D21Q]: the protein stability index was 3.19.

For LPQETNLTLKVCKPQAPQKLTPTL [D21T], the protein stability index is 3.7.

Turning to LPQETNLTLKVCKPQAPQKLEPTL [D21E], the protein stability index amounted to 3.98.

As to LPQETNLTLKVCKPQAPQKLVPTL [D21V], the protein stability index worked out at 2.87.

LPQETNLTLKVCKPQAPQKLLPTL [D21L]: the protein stability index was found to be 2.44.

On to LPQETNLTLKVCKPQAPQKLHPTL [D21H], for which the protein stability index stood at 2.86.

As for LPQETNLTLKVCKPQAPQKLGPTL [D21G], the protein stability index was 3.3.

Regarding LPQETNLTLKVCKPQAPQKLKPTL [D21K], the protein stability index turned out to be 3.77.

As to LPQETNLTLKVCKPQAPQKLPPTL [D21P], the protein stability index was found to be 3.35.

For the variant LPQETNLTLKVCKPQAPQKLDNTL [P22N], the protein stability index is 3.38.
